Results on two molecules are retold here after publication doi:10.1101/2020.10.04.325654 (bioRxiv, 2020).

Assay [1] concerns the target T1, GST-SdhA-CBM2 (Legionella pneumophila, UniProt Q6RCQ3 1029-1260). In words: ELISA.
In assay [2] the target is T1, GST-SdhA-CBM2. Briefly: pull-down.

B1: His-tagged ASH/RhoGAP domain of OCRL (536aa-901aa) (domain or fragment)
chain: not shown
On to B1, for which, in the assay with GST-SdhA-CBM2 [1], the binding result is listed as “binds”.

B2: 6xHis-OCRL (enzyme)
chain: not shown
Consider B2, for which, in the assay with GST-SdhA-CBM2 [2], the binding result is “binds”.
